Measurements published in patent publication US20240092857A1.

Tests used:
[1] = tested on: DLK1 extracellular domain (ECD), soluble, exogenously added
Presenilin-1 = Presenilin-1 (UniProt P49768); experiment: STED microscopy of KG1a-DLK1-GFP cells, 1864 condensates over 10 images
TGFBR1 = TGFBR1 (UniProt P36897); experiment: STED microscopy of KG1a-DLK1-GFP cells, 3691 condensates over 10 images
Chain of UniProt P36897 (P36897 34-503 limits assumed): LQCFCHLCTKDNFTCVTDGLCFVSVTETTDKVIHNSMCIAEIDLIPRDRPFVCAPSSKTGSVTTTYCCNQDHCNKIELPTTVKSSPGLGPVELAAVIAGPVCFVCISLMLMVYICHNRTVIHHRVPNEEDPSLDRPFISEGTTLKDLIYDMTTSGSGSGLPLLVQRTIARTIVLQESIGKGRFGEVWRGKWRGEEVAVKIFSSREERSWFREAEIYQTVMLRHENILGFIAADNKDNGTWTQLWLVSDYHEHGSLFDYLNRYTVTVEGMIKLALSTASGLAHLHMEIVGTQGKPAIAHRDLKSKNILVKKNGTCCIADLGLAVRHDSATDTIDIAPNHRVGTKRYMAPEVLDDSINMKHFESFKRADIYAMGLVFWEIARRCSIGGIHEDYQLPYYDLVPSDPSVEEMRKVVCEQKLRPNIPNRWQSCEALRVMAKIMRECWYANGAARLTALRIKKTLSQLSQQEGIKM

| percent of DLK1 in the PM that overlaps with PSEN1 (co-localization) (Presenilin-1) [%] | percent of PSEN1 that overlaps with DLK1 (co-localization) (Presenilin-1) [%] | percent of DLK1 in the PM that overlaps with TGFBR1 (co-localization) (TGFBR1) [%] | percent of TGFBR1 that overlaps with DLK1 (co-localization) (TGFBR1) [%] | Substance | Notch receptor cleavage, western blot of Notch1 cleaved at Valine 1744 (FIG. 14B) [1] |
| --- | --- | --- | --- | --- | --- |
| – | – | – | – | Presenilin-1 | reduces Notch receptor cleavage |
| 80 | 75 | 75 | 75 | full-length DLK1 isoform with a C-terminal fusion to GFP, expressed in KG1a cells (from UniProt P80370 24-383) | – |
